# Data published in patent US8828676B2, “Methods for differentiating plasma-derived protein from recombinant protein in a sample” (Baxter International Inc., priority 2007, dated 2014).
# Read-outs that look alike come from different tables or passages of the source.
# Tests used:
# [1] = target: binding of SNA to plasma VWF (Sambucus nigra, UniProt Q41358); conditions: for Inhibition of binding of SNA to plasma VWF: plasma VWF:Ag 5 mU/mL
# [2] = tested on: Maackia amurensis agglutinin (MAA); assay: MAA binding of plasma VWF and rVWF after neuraminidase treatment; conditions: for Binding to MAL after addition of neuraminidase: neuraminidase 1-20 mU/mL
# Text: In order to confirm that the recombinant protein did express sialic acid moieties, but in a different configuration than the plasma derived sialic acid, a binding assay that measures binding of protein to α2,3-linked neuraminic acid is used to detect the recombinantly expressed α2,3-linked neuraminic acid on the recombinant protein. The lectin, Maackia amurensis agglutinin (MAA), which binds α2,3-linked neuraminic acid, was used to determine if desialylation of rVWF occurred in the presence of neuraminidase.
# Anti-vWF plates were prepared as above. Both the human plasma pool and the rVWF preparation were diluted to obtain VWF:Ag concentrations of 5 mU/mL and 2.5 mU/mL. 100 μL/well of the sample dilutions were loaded to the coated, periodate-oxidized plates and incubated for 60 minutes at RT and washed afterwards. The neuraminidase digest was then carried out on the plate. Neuraminidase (Sigma) was used at the concentrations of 0, 1, 5, 10 and 20 mU/mL. Afterwards, the plates were washed and incubated with the biotinylated MAA (Vector, 1 μg/mL) for 60 minutes at RT. The incubation was terminated by washing, after which the plates were incubated 30 minutes at RT with streptavidin peroxidase (DakoCytomation, 1/4000). After a final washing step, the bound peroxidase was measured as previously described.
# [3] = target: T1, Sambucus nigra agglutinin (SNA) (Sambucus nigra, UniProt Q41358); conditions: plasma pool 2.88-0.18 mU VWF:Ag/mL; rVWF 311-19 mU/mL
# [4] = target: T1, Sambucus nigra agglutinin (SNA); conditions: mean of six tests, human plasma pool = 100%
# [5] = target: T1, Sambucus nigra agglutinin (SNA); conditions: for Change of SNA binding after neuraminidase treatment: neuraminidase 0-20 mU/mL, 2 hours 37° C.
# binding of SNA to plasma VWF, sequence (Q41358 309-570 limits assumed): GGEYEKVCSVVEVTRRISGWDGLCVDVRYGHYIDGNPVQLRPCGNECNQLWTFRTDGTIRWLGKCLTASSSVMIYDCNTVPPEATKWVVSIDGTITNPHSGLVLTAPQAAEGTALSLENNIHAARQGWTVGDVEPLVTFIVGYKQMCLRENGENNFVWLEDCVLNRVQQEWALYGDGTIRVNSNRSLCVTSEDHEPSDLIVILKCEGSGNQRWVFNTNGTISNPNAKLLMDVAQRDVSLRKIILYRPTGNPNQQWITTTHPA
# binding of SNA to plasma VWF, sequence (Q41358 29-289 partner limits assumed): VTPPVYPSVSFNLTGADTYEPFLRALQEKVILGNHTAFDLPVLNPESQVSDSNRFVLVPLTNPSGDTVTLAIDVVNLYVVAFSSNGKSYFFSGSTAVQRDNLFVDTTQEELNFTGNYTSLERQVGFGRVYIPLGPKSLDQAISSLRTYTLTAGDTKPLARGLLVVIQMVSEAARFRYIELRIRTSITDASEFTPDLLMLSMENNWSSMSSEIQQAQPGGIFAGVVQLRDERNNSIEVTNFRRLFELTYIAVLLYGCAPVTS
compound,measurement,setting,value
CC(=O)N[C@H]1[C@H]([C@H](O)[C@H](O)CO)O[C@@](OC[C@H]2O[C@@H](O[C@H]3[C@H](O)[C@@H](O)[C@H](O)O[C@@H]3CO)[C@H](O)[C@@H](O)[C@H]2O)(C(=O)O)C[C@@H]1O [6′-sialyllactose],Inhibition of binding of SNA to plasma VWF,[1]; 10 μM,approximately 25%
same,Inhibition of binding of SNA to plasma VWF,[1]; 100 μM,~75%
"plasma VWF: plasma derived von Willebrand factor, measured in a human plasma pool",Binding to MAL after addition of neuraminidase,[2],abolished
same,SNA binding,[3],clear dose dependent relation
same,SNA binding Mean (SNA binding measured),"[4]; Example 7, 0 U rVWF spiked",137.2%
same,SNA binding Mean (SNA binding found),"[4]; Example 8, 0 rVWF spiked",123.5%
same,Change of SNA binding after neuraminidase treatment,[5]; VWF:Ag 5 and 2.5 mU/mL,reduced proportional to the concentration of the neuraminidase applied
same,SNA binding relative to initially measured,[5]; neuraminidase 20 mU/mL,less than 95%
CC(=O)N[C@H]1[C@H]([C@H](O)[C@H](O)CO)O[C@@](O[C@H]2[C@@H](O)[C@@H](CO)O[C@@H](O[C@H]3[C@H](O)[C@@H](O)C(O)O[C@@H]3CO)[C@@H]2O)(C(=O)O)C[C@@H]1O (some centres unmarked) [3′-sialyllactose],Effect on binding of SNA to plasma VWF,[1]; assay as in Example 5,no effect
CHO cell-derived rVWF: recombinantly produced von Willebrand factor from Chinese hamster ovary (CHO) cells,Binding to MAL after addition of neuraminidase,[2],abolished
same,MAA lectin binding,[2]; without neuraminidase,bound
same,SNA binding,[3],no binding
same,Change of SNA binding after neuraminidase treatment,[5]; VWF:Ag 5 and 2.5 mU/mL,not altered
same,SNA binding,"[5]; without neuraminidase, VWF:Ag 5 and 2.5 mU/mL",no binding
